In publication PMC7943577:

Target: BOM1093 of Borrelia miyamotoi strain MYK3, 6xHis-tagged on the C terminus, expressed in B. garinii HT59G (Borrelia miyamotoi strain MYK3)
Assay: ELISA; Maxisorp wells coated with 0.5 µg/well sonicated B. garinii HT59G/pBOM1093 in TBS; recombinant human Vn 6.25-400 nM, 2 h at room temperature; detected with mouse anti-human Vn IgG; values of the mock strain (pBSV2) subtracted; KD fitted in Prism

Substance “recombinant human vitronectin (from UniProt P04004 20-478) (natural protein)” has a Kd of 10.8 nM.
